Results: patent US12636342B2, “TARS derived from Akkermansia muciniphila or fragment thereof, and use thereof” (KOREA RESEARCH INSTITUTE OF BIOSCIENCE AND BIOTECHNOLOGY, priority 2020, dated 2026)

Columns and labels:
[1] = tested on: macrophage-depleted colitis mice; experiment: DSS-induced colitis in macrophage-depleted (Clodrosome) mice; assay type: in vivo, mouse
Method: To further validate the macrophage-dependent function of AmTARS in improving colitis, we investigated the anti-inflammatory effects of AmTARS in macrophage-depleted colitis mice.
A macrophage-deficient mice were prepared by administration of Clodrosome (administered at a concentration of 200 μL/animal to the abdominal cavity of mice a total of three times on Days 1, 5, and 8), and then the anti-inflammatory efficacy experiment was conducted by way of the same method as in Example 5. Normal mice injected with Encapsome were used as a control.

[2] = tested on: Raw 264.7 cells; experiment: ELISA of immune cytokine secretion in LPS-treated Raw 264.7 cells; assay type: cell-based, mouse; conditions: Raw 264.7, LPS, 24 h
Method: Next, to determine whether the regulation of immune cytokine secretion by AmTARS in an inflammatory environment was induced by the two functional sites, the mouse-derived immune cell Raw 264.7 cells were treated with LPS to induce an immune response by the method as in Example 3, and treated with AmTARS, ΔU1AmTARS, and ΔU2AmTARS for 24 h separately to obtain cell cultures. The obtained cell cultures were analyzed for Immune cytokine secretion by way of the same method as in Example 2.

[3] = tested on: mouse macrophage Raw264.7; experiment: Phosphorylation of signal transducers in LPS-treated Raw264.7; assay type: cell-based; conditions: Raw264.7, LPS, 0.5 to 3 hours
Method: To determine which signaling pathway was involved in the anti-inflammatory effect by the immune cytokine secretion regulation of […], an inflammatory environment was created through LPS treatment on mouse macrophage Raw264.7 as mouse-derived immune cells, and then changes in phosphorylation of signal transducers involved in the regulation of immune cytokine secretion according to the presence or absence of […] treatment and the elapsed time (0.5 to 3 hours) were investigated. Raw264.7 cells were cultured in DMEM (Hyclone) containing 10% FBS and antibiotics.

[4] = tested on: BMDMs; experiment: Immunoblotting of AmTARS/TLR2-induced signaling molecules in BMDMs; assay type: cell-based, mouse
Method: (A and B) Analysis of key molecules that inhibit the MAPK and PI3K/AKT signaling pathways. IL-10 produced by BMDMs pre-treated with inhibitors of ERK (PD98059, […]), p38 (SB203580, […]), MSK1/2 (SB747651A, 10 μM), CREB (666-15, 1 μM), PI3K (Wortmannin, 10 μM), and AKT1/2 (AKT1/2, 10 μM) for 1 h before treatment with either PBS or AmTARS for 24 h (n=6 per group) (A). Flow cytometry analysis of M2 macrophages in BMDMs pre-treated for 1 h with the indicated kinase inhibitors, before treatment with either PBS or AmTARS for 24 h (n=3 per group) (B). (C and D) Western blot analysis of MAPK signaling molecules in lysates of BMDMs (C) or THP1 cells (D) treated for different times with 0.5 μM AmTARS. (E) Western blot analysis of lysates of BMDMs pre-treated with α-IgG (Isotype, 1 μg ml-1) or α-TLR2 (1 μg ml-1) for 1 h before treatment with PBS, AmTARS (0.5 μM), or Pam3 (0.5 μM) for 30 min. (F and G) Western blot analysis of PI3K/AKT signaling molecules in lysates of BMDMs (F) or THP1 cells (G) treated with 0.5 μM AmTARS. (H) AmTARS activates both TLR2/1- and TLR2/6-mediated signaling. Activation of AKT, ERK, and CREB was measured by western blot analysis of lysates of THP1 cells pre-treated with α-IgG, α-TLR1, α-TLR2, or α-TLR6 (1 μg ml-1) for 1 h before treatment for 30 min with PBS or AmTARS (0.5 µM). Data shown in (A and B) are representative of three independent experiments, each with similar results (mean±SEM). P-values were calculated using an unpaired two-tailed Student's t-test. Data shown in (C-H) are representative and repeated at least three times.
Subsequently, we conducted immunoblotting assays to measure the time-dependent activation of AmTARS/TLR2-induced signaling molecules in both BMDMs and THP1 cells. AmTARS rapidly activated ERK, p38, and MSK1/2 within 15 min and, subsequently, phosphorylation of CREB at Ser133 (which is essential for IL-10 production) within 30 min in BMDMs (FIG. 31C) and THP1 cells (FIG. 31D). We then compared AmTARS-triggered TLR2 signaling with typical ligand-triggered signaling using Pam3CSK4 (the synthetic canonical TLR2/1 agonist, referred to hereafter as Pam3) in BMDMs stimulated for 30 min. […] By contrast, activation of NF-κB was greater in Pam3-treated BMDMs than in AmTARS-treated BMDMs (FIG. 31E).

B1: Akkermansia muciniphila-derived threonyl-tRNA synthetase (TARS) (protein)
chain: MSEHKERKTLEERQQMSDLERLRHSCAHVLATAICRLWPDAQLAGGPAVDNGFYYDVELDHRISTEDFERIEEEMKKVVKENQVFQKEVISRADAMKMAESGELGALGPRSEPSRFKIDLLNDIPEDEEISLYRNGDFTDLCAGPHVGRTGNCKAFKIMSVASAFYKGDKNRPMLQRIYGTCFPNRTQLDEHLERLEEARRRDHRKLGRELGLFCIDESVGQGLILWKPKGALIRRSLQDFITEELDKLGYSQVYTPNIGKLDLYRTSGHFPYYQESQYAPIPERDAMEKLSQEGASCAELFNGLATGTIEGYMLKPMNCPHHIKIYANDAHSYRDLPVRLAEFGTVYRWEQSGELGGMTRVRGFTQDDAHIFCTPDQLAGEIRQCLGIVKTIFGTLGMTDYRVRLSMRDPESDKYVGSPENWDKAEQALREAAEWLGADYSEEAGEAAFYGPKIDFIVRDAIGREWQLGTVQVDYNLPERFDLHYTGADNKPHRPVMVHRAPFGSMERFTGLLIEHFEGKFPTWLSPEQVRVLPISDKVTDVAAAHRTALAARGVRVTVDETPDKIGAKIRNARLDRVPYMLVLGQREAEDGTVSVRHRDKGDLGAMPFEQFADLVAREIAERHISPVI
modifications: Akkermansia muciniphila TARS
- colitis-induced body weight loss [1]: no effect
- damage score [1]: no effect
- disease activity score [1]: no effect
- disruption of the epithelial lining [1]: no effect
- numbers of IL-10-positive macrophages [1]: did not affect
- numbers of inflammatory monocytes [1]: did not affect
- shortening of the intestine [1]: no effect
- secretion of IL-6 [2]: reduced in a protein concentration-dependent manner
- secretion of IL-10 [2]: increasingly secreted in an AmTARS concentration-dependent manner
- secretion of TNF-α [2]: reduced in a protein concentration-dependent manner
- extracellular signal-regulated kinase (ERK) [3]: not affected
- phosphorylation of NF-kB [3]: distinctive differences in phosphorylation from a control from 2 h
- phosphorylation of c-Jun N-terminal kinase (JNK) [3]: affected through the regulation of phosphorylation from 30 min
- phosphorylation of p38 [3]: distinctive differences in phosphorylation from a control from 2 h
- activation of CREB, AmTARS versus Pam3 ([4]; BMDMs stimulated for 30 min, 0.5 μM): significantly greater
- time to activation of AKT ([4]; BMDMs, 0.5 μM AmTARS): ≤ 15 min
- time to activation of ERK ([4]; BMDMs, 0.5 μM AmTARS): ≤ 15 min
- time to activation of MSK1/2 ([4]; BMDMs, 0.5 μM AmTARS): ≤ 15 min
- time to activation of PI3K ([4]; BMDMs, 0.5 μM AmTARS): ≤ 15 min
- time to activation of p38 ([4]; BMDMs, 0.5 μM AmTARS): ≤ 15 min
- time to inhibition of GSK3β activity (phosphorylation at Ser9) ([4]; BMDMs, 0.5 μM AmTARS): ≤ 15 min
- time to phosphorylation of CREB at Ser133 ([4]; BMDMs, 0.5 μM AmTARS): ≤ 30 min
